To fix the notation:
B1: enolase-1 (bovine, unlabeled) (enzyme, UniProt Q9XSJ4 1-434, looked up)
chain: MSILKVHAREIFDSRGNPTVEVDLFTAKGLFRAAVPSGASTGIYEALELRDNDKTRYMGKGVSKAVEHINKTIAPALVSKKLNVVEQEKIDKLMIEMDGTENKSKFGANAILGVSLAVCKAGAVEKGVPLYRHIADLAGNAEVILPVPAFNVINGGSHAGNKLAMQEFMILPVGAENFREAMRIGAEVYHNLKNVIKEKYGKDATNVGDEGGFAPNILENKEALELLKNAIGKAGYSDKVVIGMDVAASEFYRSGKYDLDFKSPDDPSRYITPDELANLYKSFIRDYPVVSIEDPFDQDDWEAWQKFTASAGIQVVGDDLTVTNPKRIAKAVSEKSCNCLLLKVNQIGSVTESLQACKLAQSNGWGVMVSHRSGETEDTFIADLVVGLCTGQIKTVAPCRSERLAKYNQILRIEEELGSKAKFAGRSFRNPLAK
notes: enolase-1 (alpha-enolase), bovine; also called Eno1; source: prepared as arrestin-1 (Pichia pastoris, nickel-agarose)
B2: arrestin-1 E218C (C63A/C143A), mBBr-labeled (natural protein, bovine)
chain: KANKPAPNHVIFKKISRDKSVTIYLGKRDYIDHVERVEPVDGVVLVDPELVKGKRVYVSLTAAFRYGQEDIDVMGLSFRRDLYFSQVQVFPPVGASGATTRLQESLIKKLGANTYPFLLTFPDYLPCSVMLQPAPQDVGKSAGVDFEIKAFATHSTDVEEDKIPKKSSVRLLIRKVQHAPRDMGPQPRAEASWQFFMSDKPLRLAVSLSKEIYYHGCPIPVTVAVTNSTEKTVKKIKVLVEQVTNVVLYSSDYYIKTVAAEEAQEKVPPNSSLTKTLTLVPLLANNRERRGIALDGKIKHEDTNLASSTIIKEGIDKTVMGILVSYQIKVKLTVSGLLGELTSSEVATEVPFRLMHPQPEDPDTAKESFQDENFVFEEFARQNLKDAGEYKEEKTDQEAAMDE
modifications: monobromobimane (mBBr) on the introduced cysteine 218
notes: arrestin-1, bovine; also called E218C-mBBr; source: Pichia pastoris, purified (nickel-agarose)

For assay [1], the target named is arrestin-1 D362K (bovine) (UniProt P08168). Kind of assay: co-IP; 5 μM arrestin-1 (or mutant) with 5 μM enolase-1–Alexa 546 in LAP200N, 2 h at 4 °C; captured by C10C10 anti-arrestin-1 mAb on Protein G magnetic beads for 16 h, 10 washes, eluted at pH 2.5; fluorescence of captured enolase-1 read.
The target of assay [2] is arrestin-1 E361K (bovine) (UniProt P08168). The description is as above.
The next assay has as its target arrestin-1 R29E (bovine) (UniProt P08168). Described as above.
In assay [3] the target is T1, arrestin-1 H10C (C63A/C143A), mBBr-labeled (bovine, UniProt P08168 2-404, C63A | C143A | H10C, monobromobimane (mBBr) on the introduced cysteine 10).
T1 construct: arrestin-1, bovine; source: Pichia pastoris, purified (nickel-agarose)
Kind of assay: fluorescence quench protection (KI quenching of mBBr); titration of the enolase-1 concentration against H10C-mBBr arrestin-1 to set the conditions. The note with it: both partners purified.

Assay [4] addresses T2, arrestin-1 E302C (C63A/C143A), mBBr-labeled (bovine, UniProt P08168 2-404, C63A | C143A | E302C, monobromobimane (mBBr) on the introduced cysteine 302).
T2 construct: arrestin-1, bovine; source: Pichia pastoris, purified (nickel-agarose)
Kind of assay: fluorescence quench protection (KI quenching of mBBr); both in solution; 0.25 μM mBBr-labeled arrestin-1, 100 mM potassium iodide, with or without 5 μM enolase-1 (20-fold molar excess); emission at 470 nm; Pf = (F(A+E+K)−F(A+K))/(F(A)−F(A+K)). Conditions: both partners purified.

Assay [5] has as its target T3, arrestin-1 E50C (C63A/C143A), mBBr-labeled (bovine, UniProt P08168 2-404, C63A | C143A | E50C, monobromobimane (mBBr) on the introduced cysteine 50).
T3 construct: arrestin-1, bovine; source: Pichia pastoris, purified (nickel-agarose)
Described as above. Conditions: both partners purified.

Assay [6] concerns the target T4, arrestin-1 R189C (C63A/C143A), mBBr-labeled (bovine, UniProt P08168 2-404, C63A | C143A | R189C, monobromobimane (mBBr) on the introduced cysteine 189).
T4 construct: arrestin-1, bovine; source: Pichia pastoris, purified (nickel-agarose)
The assay is described as above. Conditions: both partners purified.

Assay [7] addresses T5, arrestin-1 K267C (C63A/C143A), mBBr-labeled (bovine, UniProt P08168 2-404, C63A | C143A | K267C, monobromobimane (mBBr) on the introduced cysteine 267).
T5 construct: arrestin-1, bovine; source: Pichia pastoris, purified (nickel-agarose)
Described as above. The note with it: both partners purified.

Assay [8] addresses T6, arrestin-1 V281C (C63A/C143A), mBBr-labeled (bovine, UniProt P08168 2-404, C63A | C143A | V281C, monobromobimane (mBBr) on the introduced cysteine 281).
T6 construct: arrestin-1, bovine; source: Pichia pastoris, purified (nickel-agarose)
Described as above. Conditions: both partners purified.

In assay [9] the target is T7, arrestin-1 K53C (C63A/C143A), mBBr-labeled (bovine, UniProt P08168 2-404, C63A | C143A | K53C, monobromobimane (mBBr) on the introduced cysteine 53).
T7 construct: arrestin-1, bovine; source: Pichia pastoris, purified (nickel-agarose)
The description is as above. The note with it: both partners purified.

Assay [10] concerns the target T8, arrestin-1 K28C (C63A/C143A), mBBr-labeled (bovine, UniProt P08168 2-404, C63A | C143A | K28C, monobromobimane (mBBr) on the introduced cysteine 28).
T8 construct: arrestin-1, bovine; source: Pichia pastoris, purified (nickel-agarose)
The assay is described as above. The note with it: both partners purified.

In assay [11] the target is B2. The description is as above. The note with it: both partners purified.
Assay [12] has as its target T9, arrestin-1 D362C (C63A/C143A), mBBr-labeled (bovine, UniProt P08168 2-404, C63A | C143A | D362C, monobromobimane (mBBr) on the introduced cysteine 362).
T9 construct: arrestin-1, bovine; source: Pichia pastoris, purified (nickel-agarose)
The assay is described as above. The note with it: both partners purified.

Assay [13] addresses T10, arrestin-1 S210C (C63A/C143A), mBBr-labeled (bovine, UniProt P08168 2-404, C63A | C143A | S210C, monobromobimane (mBBr) on the introduced cysteine 210).
T10 construct: arrestin-1, bovine; source: Pichia pastoris, purified (nickel-agarose)
The description is as above. The note with it: both partners purified.

Assay [14] concerns the target T11, arrestin-1 D183C (C63A/C143A), mBBr-labeled (bovine, UniProt P08168 2-404, C63A | C143A | D183C, monobromobimane (mBBr) on the introduced cysteine 183).
T11 construct: arrestin-1, bovine; source: Pichia pastoris, purified (nickel-agarose)
The description is as above. The note with it: both partners purified.

Assay [15] concerns the target T1, arrestin-1 H10C (C63A/C143A), …. The assay is described as above. The note with it: both partners purified.
In assay [16] the target is T12, arrestin-1 R37C (C63A/C143A), mBBr-labeled (bovine, UniProt P08168 2-404, C63A | C143A | R37C, monobromobimane (mBBr) on the introduced cysteine 37).
T12 construct: arrestin-1, bovine; source: Pichia pastoris, purified (nickel-agarose)
The description is as above. Conditions: both partners purified.

The target in assay [17] is B1. Put plainly: fluorescence quench protection (KI quenching of mBBr); E218C-mBBr arrestin-1 with enolase-1 in the presence of 5 μM pRho* (sonicated disc membranes, light for 1 min). The note with it: both partners purified.

For the molecule “enolase-1 labeled with Alexa Fluor 546 (from UniProt Q9XSJ4 1-434) (enzyme)”, the reduction of the pulldown against WT arrestin-1 (in assay [1]; in [2]; with arrestin-1 R29E (bovine)) was 25% each time.
As for B1, the “quench protection at a 20-fold molar excess of enolase-1” value in assay [3] is 90%. Also, the “Pf (quench protection factor)” value in assay [4] turned out to be 0.772; in [5] it was 0.297; in assay [6], 0.467; in [7], 0.484; in assay [8], 0.269; in assay [9], 0.314. Further, the “Pf (quench protection factor)” value in [10] is 0.732; in [11], 1.08; in assay [12] it was 1.2; in assay [13], 0.618; in [14], 0.787; in assay [15], 0.792. In assay [16], the “Pf (quench protection factor)” value stood at 0.564.
For B2, the binding result in assay [17] is reported as “binds”.

The values are drawn from PMC7212649, “An arrestin-1 surface opposite of its interface with photoactivated rhodopsin engages with enolase-1” (The Journal of Biological Chemistry, 2020).
